Biological target: improved light‐induced dimerizing protein (iLID) (Avena sativa | Escherichia coli)
Test: recruitment to the GUV membrane, fluorescence microscopy; 450 nM iLID (His tag on DGS–NTA (Ni) lipids, inner membrane) and 100 nM SspB–mCherry encapsulated in POPC GUVs with 5% DGS–NTA (Ni); external blue light for 15 min

B1: SspB Nano–mCherry (stringent starvation protein B, Nano, fused to mCherry), P0AFZ3 1-165 (natural protein)
chain: SSPKRPKLLREYYDWLVDNSFTPYLVVDATYLGVNVPVEYVKDGQIVLNLSASATGNLQLTNDFIQFNARFKGVSRELYIPMGAALAIYARENGDGVMFEPEEIYDELNI
modifications: not checked
- ratio of mCherry intensity at the GUV membrane to luminal intensity: 3 fold
